What was measured:
[1] = tested on: normal baboon plasma (NBP); assay: aPTT and PT in normal baboon plasma in vitro; type: biochemical; conditions: 0-40 nM
[2] = tested on: recombinant FXI proteins with mutations within the A3 domain; assay: Western blot binding to recombinant FXI A3 domain alanine mutants; parameters: species or system human; conditions: 2 or 3 adjacent amino acids replaced with Alanine (FIG. 11)
Protocol: Binding studies were also conducted using recombinant FXI proteins involving mutations of different amino acids within the A3 domain to determine amino acids important for the binding of monoclonal antibody 1A6. An example of the binding of monoclonal antibody 1A6 to a panel of 25 such recombinant proteins in which 2 or 3 adjacent amino acids within the A3 domain were replaced with Alanine is shown in FIG. 11. […] Based on such studies, amino acids important for the binding of monoclonal antibody 1A6 to the FXI A3 domain were determined, and are shown in FIG. 12 (amino acids 183 to 197, 203 to 204, 234 to 236, 241 to 243, 252 to 254, and 258 to 260 of SEQ ID NO:1).

FXI = FXI procoagulant activity, aPTT and PT after single i.v. bolus in baboons; type: in vivo, baboon
Protocol: The maximum achievable prolongation of the aPTT was about 2.5 fold. FXI:Ag was measured by ELISA using goat anti-human FXI polyclonal capture and detection (horseradish peroxidase conjugated [HRP]) antibodies (Affinity Biologicals, Hamilton, Ontario), which also recognized baboon FXI and its complex with aXIMab. A standard curve was constructed with serial dilutions of NBP, and FXI concentrations were determined in percentage of NBP. Western blots for FXI were performed by size fractionation of 1 μl samples of plasma under non-reducing conditions on 7.5% polyacrylamide-SDS gels, followed by transfer to PVDF membranes. Detection was with a goat-anti-human FXI polyclonal antibody conjugated to HRP and chemiluminescence.
The anticoagulant effect (aPTT) was monitored daily, and thrombosis experiments were performed while the FXI procoagulant activity in the circulating blood was reduced by ≥99%, as assessed by comparing the clotting times to a standard curve generated with FXI deficient human plasma (George King Bio-Medical).

baboons = assay: Standard template skin bleeding time test (Surgicutt); type: in vivo, baboon
Protocol: The effects of FXI inhibition and aspirin on primary hemostasis in baboons were assessed using the standard template skin bleeding time test (Surgicutt®, International Technidyne Corp). […] All bleeding time measurements were performed by the same expert technician. For indirect assessment of hemostasis, aPTT and PT measurements were also performed.

B1: aXIMab: neutralizing murine IgG/kappa anti-human FXI monoclonal antibody from hybridoma 1A6; binds A3 domain; VH SEQ ID NO:3, VL SEQ ID NO:5 (antibody, listed as Mus musculus, V domains shown)
VH: QVTLKESGPGILKPSQTLSLTCSFSGFSLSTSGMGVGWIRQPSGKGLEWLAHIWWDDDKYYNPSLKSQLTISKDTSRNQVFLKITSVDAADTATYYCARKRSSVVAHYYAMDYWGQGTSVTVSS
VL: DIVLTQSPASLAVSLGQRATISCKASQSVDYDGDSYLNWYQQKPGQPPKLLIYAASNLESGIPARFSGSGSGTDFTLNIHPVEEEDAATYYCQQSNGDPWTFGGGTKLEIK
[1]
  prothrombin time (PT): without affecting
[1]; concentration-dependent
  activated partial thromboplastin time (aPTT): prolonged
[2]
  binding to FXI A3 domain mutants: did not bind to some mutants
FXI; 2 mg/kg i.v. bolus, one-stage clotting assay
  day by which all clotting times normalized: ≤ 11 days
FXI; 1 hr after infusion, 2 mg/kg i.v. bolus, 4 baboons, range 98.8-99.5%
  FXI procoagulant activity inhibited: 99.0%
FXI; after aXIMab administration, n=11, PBS vehicle 9.0±0.1 sec
  PT: 9.1 ± 0.1 s
FXI; after aXIMab administration, control 30.5±0.7 sec
  aPTT: 65.6 ± 2.0 s
FXI; all baboons
  PT, differences between groups: no differences
baboons; FIG. 6, compared with no treatment controls
  effect on bleeding time / hemostasis: did not demonstrably impair hemostasis
baboons; vehicle-treated controls 3.4±0.2 min
  standard template bleeding time: 3.5 ± 0.3 min

From patent US10577428B2, “Anti-factor XI monoclonal antibodies and methods of use thereof” (Oregon Health & Science University, priority 2007, dated 2020)
